Experimental data taken from patent publication US20230125550A1 (ARCELLX, published 2023).

T1: recombinant human CD123-Fc (human, UniProt P26951 19-305)
T1 construct: not shown: Fc part of CD123-Fc
T1 sequence: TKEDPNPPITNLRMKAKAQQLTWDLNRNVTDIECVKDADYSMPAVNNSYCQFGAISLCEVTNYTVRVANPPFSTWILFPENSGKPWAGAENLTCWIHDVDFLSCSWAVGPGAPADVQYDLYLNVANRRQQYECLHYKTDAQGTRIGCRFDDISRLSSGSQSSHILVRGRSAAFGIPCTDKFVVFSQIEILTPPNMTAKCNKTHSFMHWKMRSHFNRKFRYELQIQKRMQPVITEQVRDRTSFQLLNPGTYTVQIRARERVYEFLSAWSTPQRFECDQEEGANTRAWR


Target: T1, recombinant human CD123-Fc
Experiment: phage ELISA, A450 target/A450 IgG1-Fc
Procedure, shortened: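 Individual phagemid colonies picked from panning output were rescued in 96-well format using VCSM13 helper phage. Plates received 1.3 microg/ml goat anti-human IgG1-Fc antibody, followed by 5 nM recombinant human target or IgG1-Fc, and then 50 microl of phage diluted 5× in ELISA blocking buffer. An HRP-conjugated anti-M13 antibody detected binding at 450 nm. For each clone, the ELISA ratio is the absorbance with target divided by that with IgG1-Fc, averaged over every screened well containing the clone.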

| Binder | ELISA_avg [ratio] |
| --- | --- |
| SEQ ID NO 712 (designed binder) MGSWIEFEDRLYAIEDRLWALGGSEAELAAFEKEIAAFESELQAYKGKGNPEVEFLRYEAAEIRYWLQAYRHN | 4 |
| SEQ ID NO 684 (designed binder) MGSWTEFVWRLDAIEWRLEALGGSEAELAAFEKEIAAFESELQAYKGKGNPEVEFLREEAAEIRDWLQAYRHN | 4.2 |
| SEQ ID NO 681 (designed binder) MGSWEEFHDRLMAIETRLWALGGSEAELAAFEKEIAAFESELQAYKGKGNPEVEWLRYEAADIRDYLQAYRHN | 4.3 |
| SEQ ID NO 724 (designed binder) MGSWYEFENRLGAIGDRLWALGGSEAELAAFEKEIAAFESELQAYKGKGNPEVEWLRDEAAYIRAVLQAYRHN | 4.8 |
| SEQ ID NO 682 (designed binder) MGSWVEFRDRLDAIETRLWALGGSEAELAAFEKEIAAFESELQAYKGKGNPEVEWLRYEAAEIRMVLQAYRHN | 4.2 |
| SEQ ID NO 696 (designed binder) MGSWWEFESRLDAIFMRLTALGGSEAELAAFEKEIAAFESELQAYKGKGNPEVEDLREDAAFIREFLQAYRHN | 3.7 |
| SEQ ID NO 705 (designed binder) MGSWVEFWDRLWAIEDRLWALGGSEAELAAFEKEIAAFESELQAYKGKGNPEVEHLRHYAADIRVWLQAYRHN | 4.5 |
| SEQ ID NO 725 (designed binder) MGSWYEFEHRLDAIYDRLWALGGSEAELAAFEKEIAAFESELQAYKGKGNPEVEWLREEAAWIRLWLQAYRHN | 6.3 |
| SEQ ID NO 721 (designed binder) MGSWYEFEERLWAIEERLYALGGSEAELAAFEKEIAAFESELQAYKGKGNPEVEYLRYEAAWIRDFLQAYRHN | 5.4 |
| SEQ ID NO 708 (designed binder) MGSWTEFEWRLYAIEDRLMALGGSEAELAAFEKEIAAFESELQAYKGKGNPEVEFLRDEAADIRQYLQAYRHN | 4.2 |
| SEQ ID NO 727 (designed binder) MGSWVEFENRLEAIENRLWALGGSEAELAAFEKEIAAFESELQAYKGKGNPEVEWLREDAAQIRMMLQAYRHN | 6.2 |
| SEQ ID NO 722 (designed binder) MGSWYEFENRLEAIEERLWALGGSEAELAAFEKEIAAFESELQAYKGKGNPEVEMLREEAAFIRDWLQAYRHN | 6.1 |
| SEQ ID NO 683 (designed binder) MGSWMEFIDRLDAIEHRLWALGGSEAELAAFEKEIAAFESELQAYKGKGNPEVEFLREEAAEIRMYLQAYRHN | 4.3 |
| SEQ ID NO 678 (designed binder) MGSWIEFEVRLDAIWDRLFALGGSEAELAAFEKEIAAFESELQAYKGKGNPEVEYLRDEAADIRQSLQAYRHN | 4.2 |
| SEQ ID NO 687 (designed binder) MGSWVEFYDRLDAIEHRLDALGGSEAELAAFEKEIAAFESELQAYKGKGNPEVEWLRDEAAFIRDMLQAYRHN | 3.4 |
| SEQ ID NO 694 (designed binder) MGSWWEFLDRLDAIEMRLFALGGSEAELAAFEKEIAAFESELQAYKGKGNPEVEYLREEAALIRNMLQAYRHN | 9 |
| SEQ ID NO 716 (designed binder) MGSWYEFDSRLMAIEDRLWALGGSEAELAAFEKEIAAFESELQAYKGKGNPEVEYLRQEAAEIRMILQAYRHN | 3.2 |

Results, then the binder that gave them:

| ELISA_avg [ratio] | Binder |
| --- | --- |
| 3.9 | SEQ ID NO 693 (designed binder) MGSWVEFEYRLDAITERLLALGGSEAELAAFEKEIAAFESELQAYKGKGNPEVEILREEAAFIRQWLQAYRHN |
| 3.3 | SEQ ID NO 676 (designed binder) MGSWYEFDDRLEAIWDRLGALGGSEAELAAFEKEIAAFESELQAYKGKGNPEVEWLRETAADIRAELQAYRHN |
| 4.2 | SEQ ID NO 713 (designed binder) MGSWYEFWDRLEAIEDRLWALGGSEAELAAFEKEIAAFESELQAYKGKGNPEVEFLRYSAAEIRYQLQAYRHN |
| 9.2 | SEQ ID NO 679 (designed binder) MGSWTEFDRRLDAIWDRLFALGGSEAELAAFEKEIAAFESELQAYKGKGNPEVEWLREEAADIRDYLQAYRHN |
| 4.1 | SEQ ID NO 711 (designed binder) MGSWEEFEDRLWAIEDRLWALGGSEAELAAFEKEIAAFESELQAYKGKGNPEVEILRYDAAYIREILQAYRHN |
| 4.6 | SEQ ID NO 720 (designed binder) MGSWYEFWDRLEAIEERLWALGGSEAELAAFEKEIAAFESELQAYKGKGNPEVEYLRLEAADIRRILQAYRHN |
| 6.2 | SEQ ID NO 723 (designed binder) MGSWYEFEYRLEAIEDRLWALGGSEAELAAFEKEIAAFESELQAYKGKGNPEVEYLREEAAWIRVWLQAYRHN |
| 12.2 | SEQ ID NO 689 (designed binder) MGSWFEFLDRLDAIEERLWALGGSEAELAAFEKEIAAFESELQAYKGKGNPEVEWLREEAAVIRDSLQAYRHN |
| 6.2 | SEQ ID NO 686 (designed binder) MGSWYEFYDRLDAIEWRLWALGGSEAELAAFEKEIAAFESELQAYKGKGNPEVEWLRDEAAQIRDFLQAYRHN |
| 3.1 | SEQ ID NO 680 (designed binder) MGSWTEFDMRLDAIWDRLFALGGSEAELAAFEKEIAAFESELQAYKGKGNPEVEELREEAATIRGVLQAYRHN |
| 4 | SEQ ID NO 706 (designed binder) MGSWYEFADRLWAIEDRLWALGGSEAELAAFEKEIAAFESELQAYKGKGNPEVEFLRYYAADIRWVLQAYRHN |
| 4.9 | SEQ ID NO 695 (designed binder) MGSWWEFEDRLDAIEYRLFALGGSEAELAAFEKEIAAFESELQAYKGKGNPEVEFLREEAAFIRIFLQAYRHN |
| 6 | SEQ ID NO 726 (designed binder) MGSWYEFEWRLDAIYDRLGALGGSEAELAAFEKEIAAFESELQAYKGKGNPEVEWLREDAAEIRALLQAYRHN |
| 3.7 | SEQ ID NO 714 (designed binder) MGSWVEFESRLAAIEHRLWALGGSEAELAAFEKEIAAFESELQAYKGKGNPEVEELREYAAEIRDWLQAYRHN |
| 3.4 | SEQ ID NO 717 (designed binder) MGSWYEFEWRLMAIEDRLWALGGSEAELAAFEKEIAAFESELQAYKGKGNPEVEYLRHEAAEIRDVLQAYRHN |
| 11.5 | SEQ ID NO 707 (designed binder) MGSWYEFEERLYAIEDRLYALGGSEAELAAFEKEIAAFESELQAYKGKGNPEVEFLRQEAADIRLMLQAYRHN |
| 5.1 | SEQ ID NO 688 (designed binder) MGSWFEFVDRLTAIQVRLWALGGSEAELAAFEKEIAAFESELQAYKGKGNPEVEYLREEAALIRYSLQAYRHN |
| 6.4 | SEQ ID NO 719 (designed binder) MGSWWEFHDRLEAIEDRLWALGGSEAELAAFEKEIAAFESELQAYKGKGNPEVEYLRIEAADIRRQLQAYRHN |
| 5.1 | SEQ ID NO 710 (designed binder) MGSWFEFEDRLDAIWDRLWALGGSEAELAAFEKEIAAFESELQAYKGKGNPEVEFLRMDAAMIRYILQAYRHN |
| 5.8 | SEQ ID NO 685 (designed binder) MGSWVEFYDRLYAIEVRLLALGGSEAELAAFEKEIAAFESELQAYKGKGNPEVEFLRQEAAEIRDWLQAYRHN |
| 7.6 | SEQ ID NO 715 (designed binder) MGSWWEFEHRLFAIEDRLWALGGSEAELAAFEKEIAAFESELQAYKGKGNPEVEFLRDYAAEIRDYLQAYRHN |
| 4.1 | SEQ ID NO 690 (designed binder) MGSWYEFMVRLDAIEERLFALGGSEAELAAFEKEIAAFESELQAYKGKGNPEVEFLREEAASIRYHLQAYRHN |
| 8.7 | SEQ ID NO 709 (designed binder) MGSWIEFESRLWAIEDRLLALGGSEAELAAFEKEIAAFESELQAYKGKGNPEVEFLRLEAADIREDLQAYRHN |
| 11.3 | SEQ ID NO 718 (designed binder) MGSWYEFYNRLDAIEDRLWALGGSEAELAAFEKEIAAFESELQAYKGKGNPEVEYLRQEAADIRGQLQAYRHN |
